{"source": "paper PMC12325603", "about": "(Nature Communications, 2025)", "molecular_target": "the molecule itself", "test": "cryo-electron tomography", "data": [{"protein": "Munc13C K1494D/K1495D/K1500D (trimer 3xD) (domain or fragment) not shown", "values": [{"measurement": "stoichiometry N", "value": 6}]}]}
